Assay [1] has as its target T1, canine FAP (caFAP) extracellular domain (ECD) (domestic dog (Canis familiaris)).
T1 construct: also called caFAP-ECD
T1 chain: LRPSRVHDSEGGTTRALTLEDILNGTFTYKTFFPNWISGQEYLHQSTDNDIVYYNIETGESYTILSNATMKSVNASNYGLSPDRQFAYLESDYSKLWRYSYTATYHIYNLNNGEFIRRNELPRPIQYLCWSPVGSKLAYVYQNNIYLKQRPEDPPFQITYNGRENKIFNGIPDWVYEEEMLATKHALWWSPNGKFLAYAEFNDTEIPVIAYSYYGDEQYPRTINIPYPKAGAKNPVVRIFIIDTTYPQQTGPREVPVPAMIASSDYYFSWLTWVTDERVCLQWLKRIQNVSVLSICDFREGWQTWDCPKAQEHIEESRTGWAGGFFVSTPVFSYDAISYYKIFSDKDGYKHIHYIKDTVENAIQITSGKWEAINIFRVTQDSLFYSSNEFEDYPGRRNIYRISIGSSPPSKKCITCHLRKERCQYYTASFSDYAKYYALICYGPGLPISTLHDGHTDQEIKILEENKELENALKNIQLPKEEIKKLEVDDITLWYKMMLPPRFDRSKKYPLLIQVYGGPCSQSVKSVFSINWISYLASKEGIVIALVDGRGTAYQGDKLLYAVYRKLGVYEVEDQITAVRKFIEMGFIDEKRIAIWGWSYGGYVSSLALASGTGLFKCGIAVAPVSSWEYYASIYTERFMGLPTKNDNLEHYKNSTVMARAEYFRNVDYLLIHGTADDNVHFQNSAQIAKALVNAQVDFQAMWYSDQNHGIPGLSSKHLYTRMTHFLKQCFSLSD
As to the kind of experiment: ELISA, 120 nM caFAP-ECD coated on Maxisorp plates. How it is done: Cross-reactivity of the anti-hFAP antibodies with caFAP-ECD was tested using ELISA. 120 nM of caFAP-ECD was coated on Maxisorp plates overnight at 4° C. […] Specifically, the C5 antibody was employed in IgG2a format, while all other antibodies, including the 7NP2 antibody, were in IgG1 format. The differences between the IgG2a and IgG1 formats are not expected to affect binding to FAP. After 3 washes with PBS, binding of the antibodies to caFAP-ECD was detected using an anti-human or anti-murine antibody HRP conjugate.

Assay [2] has as its target T2, human FAP-ECD (extracellular domain) recombinant fragment containing a C-terminal His6 tag (human, UniProt Q12884 26-760, randomly biotinylated with NHS ester-activated biotin (as used on the SA chip and Streptawell plates)).
T2 construct: also called biotinylated human FAP-ECD; biotinylated human FAP
T2 sequence: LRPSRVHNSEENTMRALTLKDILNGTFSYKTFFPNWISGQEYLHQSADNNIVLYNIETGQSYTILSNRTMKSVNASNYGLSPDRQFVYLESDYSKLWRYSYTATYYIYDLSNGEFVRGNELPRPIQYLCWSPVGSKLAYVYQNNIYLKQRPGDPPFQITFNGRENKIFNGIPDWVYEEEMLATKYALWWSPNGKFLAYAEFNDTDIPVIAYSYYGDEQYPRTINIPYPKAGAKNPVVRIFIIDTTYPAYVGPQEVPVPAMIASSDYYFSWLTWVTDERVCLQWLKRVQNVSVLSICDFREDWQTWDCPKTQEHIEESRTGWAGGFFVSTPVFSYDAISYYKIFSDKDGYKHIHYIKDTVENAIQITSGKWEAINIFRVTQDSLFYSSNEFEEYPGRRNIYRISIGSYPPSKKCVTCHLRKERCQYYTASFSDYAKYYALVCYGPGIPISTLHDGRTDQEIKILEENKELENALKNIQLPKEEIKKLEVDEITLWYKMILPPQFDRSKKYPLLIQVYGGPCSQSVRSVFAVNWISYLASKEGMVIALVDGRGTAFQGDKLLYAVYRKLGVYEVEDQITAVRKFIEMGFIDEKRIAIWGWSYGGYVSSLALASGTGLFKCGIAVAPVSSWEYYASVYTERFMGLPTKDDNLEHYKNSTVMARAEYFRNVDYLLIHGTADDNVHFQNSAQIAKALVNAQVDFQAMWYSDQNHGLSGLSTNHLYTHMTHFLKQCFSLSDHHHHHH
Kind of assay: epitope ELISA on biotinylated human FAP on Streptawell plates. How it is done:
To evaluate binding, 100 nM of biotinylated human FAP were coated on Streptawell plates for 30 min at 37° C.
The C5 antibody in IgG2a format was incubated together with the 7NP2 antibody in IgG1 format, the F5 antibody in IgG1 format (WO2016/116399), the ESC11 antibody in IgG1 format (Fisher et al., (2012) Clin Cancer Res; 18(22)), or the (negative control) antibody KSF in IgG1 format for 1.5 h at room temperature at a concentration of 5 μg/mL in the antigen-coated wells. After 3 washes with PBS, binding of the antibodies to human FAP was detected using anti-human or anti-murine HRP conjugates (FIG. 7).

From US20240199762A1 (PHILOGEN S P A, published 2024) come the findings set out here.

B1: anti-hen egg lysozyme antibody KSF in IgG1 format (antibody, V domains shown)
VH: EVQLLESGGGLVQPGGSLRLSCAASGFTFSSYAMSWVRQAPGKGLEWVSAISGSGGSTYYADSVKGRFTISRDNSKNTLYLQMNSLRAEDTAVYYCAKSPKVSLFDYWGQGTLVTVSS
VL: SSELTQDPAVSVALGQTVRITCQGDSLRSYYASWYQQKPGQAPVLVIYGKNNRPSGIPDRFSGSSSGNTASLTITGAQAEDEADYYCQSSPLNRLAVVFGGGTKLTVLG
notes: Negative control; It was conjugated to FITC in the immunofluorescence and ex vivo experiments; also called KSF IgG1; KSF(IgG1)
Regarding B1, the binding result in assay [1] and in assay [2] was “no binding (tested: 5 µg/mL)” in each case.
